The supplement of paper PMC9112550, “Optimization of the antimicrobial peptide Bac7 by deep mutational scanning” (BMC Biology, 2022)

Tested on: Escherichia coli TOP10
Assay: shrunken log2 fold change of peptide-encoding DNA abundance (4.5 h post-induction vs induction); higher = less antimicrobial activity (less host growth inhibition)
Conditions: time post-induction: 4.5 h; library: site-saturation at positions 5, 18, 19, 20
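Note: peptides expressed intracellularly from a pBAD plasmid library in pooled LB shake-flask culture, induced with 0.3% L-arabinose, DNA abundance read by NGS, three biological replicates, DESeq2 with apeglm shrinkage.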

Sequence	shrunken log2 fold change
RRIRGRPPRLPRPRPRPDKQPRP	0.0252
RRIRIRPPRLPRPRPRPFDCPRP	-0.0028
RRIRCRPPRLPRPRPRPKSMPRP	-0.541
RRIRSRPPRLPRPRPRPGWLPRP	0.177
RRIRHRPPRLPRPRPRPQMQPRP	-0.0236
RRIRNRPPRLPRPRPRPYCMPRP	-0.776
RRIRVRPPRLPRPRPRPCYMPRP	0.155
RRIRPRPPRLPRPRPRPNADPRP	0.0878
RRIRGRPPRLPRPRPRPDSNPRP	-0.0604
RRIRFRPPRLPRPRPRPMTFPRP	-0.0585
RRIRQRPPRLPRPRPRPLQIPRP	0.223
RRIRVRPPRLPRPRPRPYGAPRP	0.162
RRIRQRPPRLPRPRPRPRMSPRP	0.208
RRIRCRPPRLPRPRPRPLVAPRP	0.033
RRIRPRPPRLPRPRPRPEQEPRP	0.278
RRIRSRPPRLPRPRPRPMRYPRP	0.215
RRIRQRPPRLPRPRPRPIAPPRP	4.03
RRIRGRPPRLPRPRPRPLGFPRP	0.755
RRIRARPPRLPRPRPRPAYSPRP	-0.0547
RRIRYRPPRLPRPRPRPIVEPRP	0.00721
RRIRERPPRLPRPRPRPEGQPRP	-0.015
RRIRSRPPRLPRPRPRPFKEPRP	-0.117
RRIRFRPPRLPRPRPRPWEDPRP	0.0682
RRIRARPPRLPRPRPRPVFYPRP	-0.0366
RRIRTRPPRLPRPRPRPTPNPRP	0.293

Sequence	shrunken log2 fold change
RRIRWRPPRLPRPRPRPHFTPRP	-0.306
RRIRWRPPRLPRPRPRPILTPRP	0.00604
RRIRKRPPRLPRPRPRPCMFPRP	-0.167
RRIRSRPPRLPRPRPRPSEFPRP	-0.306
RRIRNRPPRLPRPRPRPHNMPRP	-1.06
RRIRIRPPRLPRPRPRPCHEPRP	-0.0297
RRIRARPPRLPRPRPRPDICPRP	0.307
RRIRPRPPRLPRPRPRPYGDPRP	-0.156
RRIRVRPPRLPRPRPRPPYMPRP	-0.592
RRIRIRPPRLPRPRPRPPDRPRP	0.109
RRIRKRPPRLPRPRPRPEHNPRP	0.368
RRIRIRPPRLPRPRPRPDDRPRP	0.0115
RRIRDRPPRLPRPRPRPNWVPRP	0.0019
RRIRARPPRLPRPRPRPWEIPRP	-0.0378
RRIRMRPPRLPRPRPRPSCYPRP	-0.348
RRIRIRPPRLPRPRPRPHMLPRP	-0.943
RRIRKRPPRLPRPRPRPQGTPRP	-0.0539
RRIRTRPPRLPRPRPRPVKCPRP	-0.0123
RRIRMRPPRLPRPRPRPTRLPRP	1.19
RRIRQRPPRLPRPRPRPNWNPRP	-0.206
RRIRMRPPRLPRPRPRPIKVPRP	-0.149
RRIRIRPPRLPRPRPRPMSDPRP	-0.102
RRIRTRPPRLPRPRPRPFFSPRP	-0.135
RRIRERPPRLPRPRPRPKGWPRP	0.493
RRIRERPPRLPRPRPRPELPPRP	-0.0646

Sequence	shrunken log2 fold change
RRIRCRPPRLPRPRPRPWTQPRP	-0.12
RRIRTRPPRLPRPRPRPIAVPRP	-0.213
RRIRKRPPRLPRPRPRPWFFPRP	-0.043
RRIRFRPPRLPRPRPRPIGYPRP	-0.363
RRIRGRPPRLPRPRPRPDGCPRP	0.792
RRIRLRPPRLPRPRPRPFTCPRP	-0.115
RRIRKRPPRLPRPRPRPFVIPRP	-0.363
RRIRCRPPRLPRPRPRPPASPRP	0.723
RRIRWRPPRLPRPRPRPGVYPRP	0.221
RRIRHRPPRLPRPRPRPWVRPRP	0.0215
RRIRNRPPRLPRPRPRPKEDPRP	0.0361
RRIRTRPPRLPRPRPRPPFLPRP	0.207
RRIRVRPPRLPRPRPRPRDFPRP	0.0486
RRIRTRPPRLPRPRPRPIELPRP	-0.0636
RRIRGRPPRLPRPRPRPVGGPRP	0.897
RRIRKRPPRLPRPRPRPQNCPRP	-0.132
RRIRARPPRLPRPRPRPVNNPRP	-0.223
RRIRWRPPRLPRPRPRPLWVPRP	0.0766
RRIRYRPPRLPRPRPRPVCVPRP	-0.339
RRIRSRPPRLPRPRPRPTMEPRP	0.317
RRIRLRPPRLPRPRPRPWQTPRP	-0.0245
RRIRARPPRLPRPRPRPDWAPRP	0.524
RRIRRRPPRLPRPRPRPQRQPRP	0.175
RRIRTRPPRLPRPRPRPFHMPRP	-0.13
RRIRGRPPRLPRPRPRPQAAPRP	1.22
